Assay results published in the RNAGym collection of RNA variant scans (doi:10.7554/elife.80360).

B1: HDV Ribozyme (parent)
chain: GGCCGGCAUGGUCCCAGCCUCCUCGCUGGCGCCGGCUGGGCAACAUUCCGAGGGGACCGUCCCCUCGGUAAUGGCGAAUGGGACCCA

Variants of: B1
Experiment: self-cleavage, relative activity (ratio to wild type); higher = more cleavage; co-transcriptional

Variant	self-cleavage
U46A G80C	0.0831
U46A U69C	0.779
A45U A71C	0.653
A45U A71U	1.01
A45U U72G	0.755
U46A A56G	0.831
U46A A56C	0.802
U46A A56U	0.704
U46C U65G	1.09
U46G U69G	0.776
U46G U69A	0.665
U46A G68U	0.657
U46A G68A	0.65
A45U U46A	0.639
A45G C48G	1.23
A45G C48U	0.978
A45G C49U	1.24
A45G C49G	0.831
A45G C49A	0.872
U46C A70U	0.957
U46C A70C	0.795

Variant	self-cleavage
U46C C66U	0.886
U46C G55A	0.878
U46C G55C	0.554
U46G A70G	0.511
U46G A70C	0.665
U46G A70U	0.997
A45G A71U	0.997
U46G G52C	0.429
A45U U65C	1.04
A45U U65A	0.618
A45U G73C	0.62
U46G C62U	0.811
A45G G80A	0.177
A45G C58U	0.906
A45G C58G	1.14
A45U G68U	0.845
A45G G82C	0.391
A45G G82A	0.415
U46C U60A	0.674
U46C U60G	0.755
A45G G76A	0.959

Variant	self-cleavage
A45G G76C	1.07
U46G G76A	0.911
U46G G76C	0.95
A45U G54C	0.849
A45U G54U	0.8
U46A U47G	0.369
A45G U79A	0.755
A45G U79C	0.674
U46C G76A	1.01
U46G A87G	0.724
U46G C86U	0.277
U46G C86A	0.684
A45U G82A	0.162
A45U G82U	0.529
U46A C57A	0.851
U46A C57U	0.657
A45U G55A	0.594
A45U G53U	0.997
U46C A77C	0.375
U46C A77U	0.104
U46C A77G	0.516

Variant	self-cleavage
U46A G52C	0.759
U46A A77G	0.646
U46A A77C	0.119
U46A A77U	0.115
A45G A83U	0.485
U46G U72C	0.287
A45U C75G	0.133
A45U C75A	0.277
A45U C75U	0.321
U46C A87C	0.91
U46C A87U	0.689
U46G A78C	0.277
A45U U47C	0.772
A45U U47A	0.973
A45U U47G	0.867
A45G C84G	0.623
A45G C84U	0.658
A45G C84A	0.587
U46C C58A	0.554
A45G U47A	1.13
